In doi:10.1101/2024.10.30.620795 (2024):

T1: A*24/QYI peptide on A*24/QYI (human)
T1 peptide: QYIKWPWYI

T2: A*01/LTD peptide on A*01/LTD (human)
T2 peptide: LTDEMIAQY

T3: A*02/YLQ peptide on A*02/YLQ (human)
T3 peptide: YLQPRTFLL

B1: 96 (TCR)
alpha TRAV38-1 TRAJ57 CDR3: CAFSPGGSEKLVF
beta TRBV5-1 TRBJ2-7 CDR3: CASSLGRFLRGDWDYEQYF
B2: 84 (TCR)
alpha TRAV8-3 TRAJ24 CDR3: CAVGLTDSWGKLQF
beta TRBV5-8 TRBJ2-1 CDR3: CASSLAIRGIIDNEQFF
B3: 10813 (TCR)
alpha TRAV3 TRAJ45 CDR3: CAVRDSGGGADGLTF
beta TRBV29-1 TRBJ2-2 CDR3: CSVPGLVFPGELFF
B4: 2997 (TCR)
alpha TRAV9-2 TRAJ9 CDR3: CALSALNTGGFKTIF
beta TRBV20-1 TRBJ1-1 CDR3: CSASGLTRDSPLNTEAFF
B5: 4350 (TCR)
alpha TRAV29/DV5 TRAJ42 CDR3: CAASLNYGGSQGNLIF
beta TRBV19 TRBJ1-1 CDR3: CASSSKDITVTEAFF
B6: 5226 (TCR)
alpha TRAV21 TRAJ49 CDR3: CAVRGNQFYF
beta TRBV6-2 TRBJ2-1 CDR3: CASSYVVVQGVPYNEQFF
B7: 1690 (TCR)
alpha TRAV8-4 TRAJ10 CDR3: CAVSDLRVLTGGGNKLTF
beta TRBV7-9 TRBJ2-1 CDR3: CASSLALAGRNYNEQFF
B8: 2058 (TCR)
alpha TRAV39 TRAJ49 CDR3: CAEGNQFYF
beta TRBV7-9 TRBJ2-1 CDR3: CASSLALAGRNYNEQFF
B9: 317 (TCR)
alpha TRAV12-3 TRAJ33 CDR3: CAMRSNYQLIW
beta TRBV6-5 TRBJ2-7 CDR3: CASSYAQGEQYF
B10: 545 (TCR)
alpha TRAV38-1 TRAJ23 CDR3: CALRGNQGGKLIF
beta TRBV7-9 TRBJ2-7 CDR3: CASSPDGMHEQYF
B11: 2722 (TCR)
alpha TRAV21 TRAJ45 CDR3: CAVRGADGLTF
beta TRBV6-6 TRBJ2-7 CDR3: CASTNRASDSYEQYF
B12: 1650 (TCR)
alpha TRAV13-1 TRAJ9 CDR3: CAAPPGGFKTIF
beta TRBV28 TRBJ2-1 CDR3: CASTTSTGAYNEQFF
B13: 41 (TCR)
alpha TRAV12-2 TRAJ53 CDR3: CAVGRGGGSNYKLTF
beta TRBV29-1 TRBJ2-7 CDR3: CSAHGGWPYEQYF
B14: 475 (TCR)
alpha TRAV3 TRAJ40 CDR3: CAVSGPTSGTYKYIF
beta TRBV5-5 TRBJ1-5 CDR3: CASSLWDGGNQPQHF
B15: 2495 (TCR)
alpha TRAV19 TRAJ23 CDR3: CALRIYNQGGKLIF
beta TRBV5-1 TRBJ2-1 CDR3: CASSTGLAGMSSYNEQFF
B16: 7894 (TCR)
alpha TRAV5 TRAJ39 CDR3: CAQNAGNMLTF
beta TRBV27 TRBJ1-1 CDR3: CASSLAPNTEAFF
B17: 3155 (TCR)
alpha TRAV12-3 TRAJ33 CDR3: CAMRSNYQLIW
beta TRBV6-5 TRBJ2-1 CDR3: CASSYAQGAQFF
B18: 1361 (TCR)
alpha TRAV12-1 TRAJ4 CDR3: CVVTGFSGGYNKLIF
beta TRBV14 TRBJ1-4 CDR3: CASSLVRGGFEKLFF
B19: 4386 (TCR)
alpha TRAV14/DV4 TRAJ10 CDR3: CAKAGGGNKLTF
beta TRBV7-6 TRBJ2-1 CDR3: CASSLTTGQGPHNEQFF
B20: 2123 (TCR)
alpha TRAV14/DV4 TRAJ43 CDR3: CAMRDLGDMRF
beta TRBV27 TRBJ1-2 CDR3: CASSFWDRRYGYTF
B21: 99 (TCR)
alpha TRAV5 TRAJ24 CDR3: CAERRGKLQF
beta TRBV15 TRBJ2-5 CDR3: CATSRGPGGSKAGETQYF
B22: 9973 (TCR)
alpha TRAV39 TRAJ54 CDR3: CAVDSSFQGAQKLVF
beta TRBV6-2 TRBJ2-7 CDR3: CASSLPDSYEQYF
B23: 3695 (TCR)
alpha TRAV12-1 TRAJ20 CDR3: CVVNWYDYKLSF
beta TRBV30 TRBJ2-2 CDR3: CAWINDQNTGELFF
B24: 6579 (TCR)
alpha TRAV12-1 TRAJ10 CDR3: CVVNSPEGGGNKLTF
beta TRBV7-2 TRBJ1-1 CDR3: CASSSLNSLEAFF
B25: 10749 (TCR)
alpha TRAV12-1 TRAJ20 CDR3: CVVNKEDKLSF
beta TRBV20-1 TRBJ2-2 CDR3: CSARDLLAANTGELFF
B26: 5766 (TCR)
alpha TRAV12-1 TRAJ43 CDR3: CVVNMYDDMRF
beta TRBV5-1 TRBJ2-2 CDR3: CASIDSNTGELFF
B27: 7411 (TCR)
alpha TRAV12-1 TRAJ45 CDR3: CVVNRADGLTF
beta TRBV12-3 TRBJ2-2 CDR3: CASTDGNTGELFF
B28: 6688 (TCR)
alpha TRAV12-1 TRAJ36 CDR3: CVVNKEDNLFF
beta TRBV9 TRBJ2-2 CDR3: CASSGGIETSGNTGELFF
B29: 9825 (TCR)
alpha TRAV12-1 TRAJ43 CDR3: CVVNELDDMRF
beta TRBV5-1 TRBJ2-2 CDR3: CASAGPNTGELFF

Target: T1, A*24/QYI peptide on A*24/QYI
Experiment: activation reporter or marker

| Binder | binding result |
| --- | --- |
| B1 | no recognition |
| B2 | no recognition |

Target: T2, A*01/LTD peptide on A*01/LTD
Experiment: activation reporter or marker

| Binder | binding result |
| --- | --- |
| B3 | recognises |
| B4 | recognises |
| B5 | no recognition |
| B6 | recognises |
| B7 | no recognition |
| B8 | recognises |
| B9 | recognises |
| B10 | recognises |
| B11 | recognises |
| B12 | recognises |
| B13 | recognises |
| B14 | recognises |
| B15 | recognises |
| B16 | recognises |
| B17 | recognises |
| B18 | recognises |
| B19 | recognises |
| B20 | no recognition |
| B21 | recognises |

Target: T3, A*02/YLQ peptide on A*02/YLQ
Experiment: activation reporter or marker

| Binder | binding result |
| --- | --- |
| B22 | no recognition |
| B23 | recognises |
| B24 | recognises |
| B25 | recognises |
| B26 | recognises |
| B27 | recognises |
| B28 | recognises |
| B29 | recognises |
